Like-named read-outs stand apart in the source and are kept apart here.
Key:
[1] = molecular target: polyubiquitin (UniProt P0CG48); experiment: ELISA; 0.50 ug polyubiquitin dried per well (Nunc MaxiSorp), blocked with 1% BSA; angiocidin or mutants at various concentrations in TBST pH 7.4, 1.5 h, room temperature; detected with biotinylated rabbit antiangiocidin IgG and streptavidin-HRP; fitted to a rectangular hyperbola
[2] = molecular target: polyubiquitin (UniProt P0CG48); experiment: as above; remark: listed apart in the source
[3] = molecular target: polyubiquitin (UniProt P0CG48)

Substance | Kd [1] [nM] | Kd [2] [nM] | endothelial cell apoptotic activity: viability of HUVE cells plated overnight on wells coated with 1 ug protein, Alamar blue assay (fold lower than angiocidin) [3]
angiocidin (his-tagged recombinant, full length) (natural protein) | 0.041 | – | –
angiocidin mutant M-2 (L216ALAL220 substituted with alanines) (natural protein) | 15 | 1.52 | 2
